The data set concerns the target DosR (DosRwt) (Mycobacterium tuberculosis, UniProt P9WMF9 1-217). The experiment in a line: EMSA; 4, 8, 16 uM protein; 20 mM MgCl2; […]; ITC: 20 mM Tris pH 8.0, 200 mM NaCl, 25 C, […]. Particulars: protein: recombinant; tags: His6 (N-terminal from pET28a NdeI/HindIII; C-terminal His6 encoded by primer PTD2 in pT7-dosR); chain copies: 2; label: none (ethidium bromide stain); blunt. Background: In EMSA bound probe runs differently from free probe, usually more slowly.

B1: 20-bp DosR regulon consensus DNA (EM1/EM2) (dsDNA)
DNA 1: TTGGGGACTAAAGTCCCTAA
DNA 2: TTAGGGACTTTAGTCCCCAA
Regarding B1, the binding result was “binds”.
